Measured values reported in a protein production outcome set (Wang et al. 2014).

Assay: label from the status in PepcDB records

Row | Sequence | protein production
1 | MAASVANCCFSVLNASVKIQSSSISSPWCFVSASSLTPRASSNIKRKSSRSDSPSPILNPEKNYPGRVRDESSNPPQKMAFKAFGSPKKEKKESLSDFSRDQQTDPAKIHDASFLNAVVKVSKSNSLSSLKFTLLAFEPTRASFQVYCTHTAPDYSLPWQKQRQFTSTGSAFMIGDGKLLTNAHCVEHDTQVKVKRRGDDRKYVAKVLVRGVDCDIALLSVESEDFWKGAEPLRLGHLPRLQDSVTVVGYPLGGDTISVTKGVVSRIEVTSYAHGSSDLLGIQIDAAINPGNSGGPAFNDQGECIGVAFQVYRSEETENIGYVIPTTVVSHFLTDYERNGKYTGYPCLGVLLQKLENPALRECLKVPTNEGVLVRRVEPTSDASKVLKEGDVIVSFDDLHVGCEGTVPFRSSERIAFRYLISQKFAGDIAEIGIIRAGEHKKVQVVLRPRVHLVPYHIDGGQPSYIIVAGLVFTPLSEPLIEEECEDTIGLKLLTKARYSVARFRGEQIVILSQVLANEVNIGYEDMNNQQVLKFNGIPIRNIHHLAHLIDMCKDKYLVFEFEDNYVAVLEREASNSASLCILKDYGIPSERSADLLEPYVDPIDDTQALDQGIGDSPVSNLEIGFDGLVWA | failed
2 | MAATTNFTKSMLFPFSHVSGNASLNSQRRTWPKQYKSKNGYRSLRVNGLFGGGNKDNNSEDGQSKAGIFGNMQNMYETVKKAQMVVQVEAVRVQKELAAAEFDGYCAGELVKVTLSGNQQPIRTDITEAAMELGSEKLSQLVTEAYKDAHAKSVVAMKERMSDLAQSLGMPPGLSEGMK | failed
3 | MAAVGSGGYARNDAGEKLPSVMAGVPARRGQSSPPPAPPICLRRRTRLSTASEETVQNRVSLEKVLGITAQNSSGLTCDPGTGHVAYLAGCVVVILDPKENKQQHIFNTARKSLSALAFSPDGKYIVTGENGHRPAVRIWDVEEKNQVAEMLGHKYGVACVAFSPNMKHIVSMGYQHDMVLNVWDWKKDIVVASNKVSCRVIALSFSEDSSYFVTVGNRHVRFWFLEVSTETKVTSTVPLVGRSGILGELHNNIFCGVACGRGRMAGSTFCVSYSGLLCQFNEKRVLEKWINLKVSLSSCLCVSQELIFCGCTDGIVRIFQAHSLHYLANLPKPHYLGVDVAQGLEPSFLFHRKAEAVYPDTVALTFDPIHQWLSCVYKDHSIYIWDVKDINRVGKVWSELFHSSYVWNVEVYPEFEDQRACLPSGSFLTCSSDNTIRFWNLDSSPDSHWQKNIFSNLAPALQMCGRGHSRQPNTPSPGEIAS | failed
4 | MAAVILESIFLKRSQQKKKTSPLNFKKRLFLLTVHKLSYYEYDFERGRRGSKKGSIDVEKITCVETVVPEKNPPPERQIPRRGEESSEMEQISIIERFPYPFQVVYDEGPLYVFSPTEELRKRWIHQLKNVIRYNSDLVQKYHPCFWIDGQYLCCSQTAKNAMGCQILENRNGSLKPGSSHRKTKKPLPPTPEEDQILKKPLPPEPAAAPVSTSELKKVVALYDYMPMNANDLQLRKGDEYFILEESNLPWWRARDKNGQEGYIPSNYVTEAEDSIEMYEWYSKHMTRSQAEQLLKQEGKEGGFIVRDSSKAGKYTVSVFAKSTGDPQGVIRHYVVCSTPQSQYYLAEKHLFSTIPELINYHQHNSAGLISRLKYPVSQQNKNAPSTAGLGYGSWEIDPKDLTFLKELGTGQFGVVKYGKWRGQYDVAIKMIKEGSMSEDEFIEEAKVMMNLSHEKLVQLYGVCTKQRPIFIITEYMANGCLLNYLREMRHRFQTQQLLEMCKDVCEAMEYLESKQFLHRDLAARNCLVNDQGVVKVSDFGLSRYVLDDEYTSSVGSKFPVRWSPPEVLMYSKFSSKSDIWAFGVLMWEIYSLGKMPYERFTNSETAEHIAQGLRLYRPHLASEKVYTIMYSCWHEKADERPTFKILLSNILDVMDEES | not failed
5 | MACFSSLSTGVLDMYDLIIVGGGPSGASAGRVAGKAGISTLLIEKENFPRYKPCGGALSPYALSCLDFKLPEYLIEKDISRIRVHFRELCTEMQKDYSIALLVSRKAFDNFLLDKARETGIDIHSGEKVLDCEEGEECVEVRTSQNTYLAKFVLIAEGSEGVLKYSVRKRKDRRTEYDLALVSEIPERDKVIRKRFPNAIDMHFGIASGGYGWIFPHSEHYSVGIVGTAEHLKHPKAVMQDFLQANGFSGDFQVHSHIIPVGGIKRKTISSRILLSGDAAGFVDAFIGEGISYAIRSGQLAAENVAEIVLYNRKLSDLKEYETSCRKEFGNFLSSSLKLEKAMHRFPETSFRLALSRKEIIDKYLEEVVINRSHKDYVRWLLLNFSLSEPASKIKSIKDKNQLEHHHHHH | failed
6 | MACHGFLGKPTPKSFGRHHKHARKNRNHQSRCLAAAVAAAGSIFTSLNMSIFTFHNRLLRCVSRFLRLATTSSATPTRRPTMKQGYKKLHKREPLIRRNDKKRTIFLDLDETLVHSTMEPPIRVNVDFMVRIKIEGAVIPMFVVKRPGVTEFLERISKNYRVAIFTAGLPEYASQVLDKLDKNRVISQRLYRDSCTEVNGRYAKDLSLVAKNDLGSVLLVDDNPFSYSLQPDNGVPIKPFMDDMEDQELMKLAEFFDGCYQYEDLRDAAAELLSSKLI | failed
7 | MADAPDTERQAVEPEAGDVLSVSQLNDRIASVVEDAPALDGVRCIGEVTDLHQNSTALYFTLTDGDAELPCMIWANRYRKMDAELEDGTEVILEGDIDYWTEGGKIDLKPWEVIVVGDGDQAAAVERLRSELEERGWFDDEQKQRPPAFPERVGVVTSLRGDARYDIQSAIHEQDPTVDILVKDATVQGSEAPTSIANGIHHLDRSEDVDSIIVGRGGGSDSNLQAFNTERVAEAIFTANTPIVTAIGHTDDRLIADRVADMAAITPTAAGEYIAKSRNDFLASDIGPLEQQLEAAYETFEQEHEHEQELAEAVEEATAPEGLSPVYYKVAIVVLLVLLLLITALWLGVI | failed
8 | MADAPIDIFQSILSRKSIRAFTDQPVTQETIREILKLAARAPSGTNLQPWQVIVLTGKILQKVGQELSQLVLSGIKGEREYHYYPRQWREPYLSRRRKVGLDLYKSLGIQKGDQEKMLHQKAKNFLFYGAPVGLLFTIDHDMEMGSWLDLGMFMQTIMLAARGFGLDTCAQAAFADYHKQIRSLLSVPSDRHIICGMALGYRDMNAPENNFETEREPIDNFVHFIKSYP | not failed
9 | MADISLDELIRKRGAAAKGRLNARPGVGGVRSRVGIQQGLLSQSTRTATFQQRFDARQKIGLSDARLKLGVKDAREKLLQKDARFRIKGKVQDAREMLNSRKQQTTVPQKPRQVADAREKISLKRSSPAAFINPPIGTVTPALKLTKTIQNLYDLDEDDDGIASVPTKQMKFAASGGFLHHMAGLSSSKLSMSKALPLTKVVQNDAYTAPALPSSIRTKALPVLTSPGT | not failed
10 | MADLPSISLITATYNAAQHLPGLIESVRQQSDRAFEWIVIDGASEDGTLDLIRGAQDVITDYVSEPDFGIFHALNKGIQRATGDYYLVVGADDRLDPLAIANYKQAAASSQADLISAYIYSEKKAIIKPTGGAIWHHGVQAFITTQSVGTLIKRNLHEHYGYYSHYYPTAADALFILKVQQGGGKITTAEFIAGQYNTKGFSYRYKANLLCELFLIQKEFFPKSIQLLLLIYRLIKNYRYLLEHHHHHH | failed
11 | MADMSDAPLVVQSDRTILLEVDNPLYPEARDALARFAELVKSPEHIHTYRLTPLSLWNAAAGGLDAATIIQVLADYSKYPLPANVVADIREYVGRYGKVKLVARGTGLRLVTADPGIAAEISNNKRIQPYIKERQDACTLAIDPWQRGPVKQALIKIGYPVEDLAGYIPGAPLPFSLRERTLNGETFSLRPYQAEAARVFYAGGSSRGGSGVIVLPCGAGKTVVGIAAMALCQCYTLILVTSVTAARQWLAEIRDKTDLPPEMLGEYTGEKKEIKPVTVATYQIITHRRRRNEDYPNFQLFNQQDWGLIIYDEVHLLPAPIFRITAELQARRRLGLTATLIREDGHEDDVFSLIGPKKYDLPWKQLEAQGWIAKATCYEVRLNLPPEMRLDYASAGERDKYRIAATNPVKEAVVENIIKRHEGEQVLVIGQYLEQLERLARRLGVPMITGQTSNRERERLYQAFREGTLKCLVVSKVANFAIDLPEASVAVQVSGAFGSRQEEAQRLGRILRPKKGGLPASFYTLVTRETVEQEFAVHRQLFLTEQGYRYVIIGPDLEQEGDKVYPLKTPTGSEPAVGAVIKQENLDGKVIDLMAWRQKAGR | failed
12 | MADNYVIWFENLRMTDVERVGGKNASLGEMISQLTEKGVRVPGGFATTAEAYRAFLAHNGLSERISAALAKLDVEDVAELARVGKEIRQWILDTPFPEQLDAEIEAAWNKMVADAGGADISVAVRSSATAEDLPDASFAGQQETFLNINGLDNVKEAMHHVFASLYNDRAISYRVHKGFEHDIVALSAGVQRMVRSDSGASGVMFTLDTESGYDQVVFVTSSYGLGENVVQGAVNPDEFYVFKPTLKAGKPAILRKTMGSKHIKMIFTDKAEAGKSVTNVDVPEEDRNRFSITDEEITELAHYALTIEKHYGRPMDIEWGRDGLDGKLYILQARPETVKSQEEGNRNLRRFAINGDKTVLCEGRAIGQKVGQGKVRLIKDASEMDSVEAGDVLVTDMTDPDWEPV | not failed
13 | MADQPESPSRPRGGLRRLLPWSGADTARTATTVHTVINGERGGQGLAAHQLVPAKAKSGAHDPAAATALLIRLFSHAAHPEALLLAFAEGITSLHGELGDMGVRLSAAYAAGDWPGYGRALRQLIDKYIRTIDIGDSLAEGRTEAEQLRDLLRHALGNALATLLQRSPELAEEAQTLASALRHWRPGHELLTLEQRLRELSHQIGLRAEDASEQQNLLLGLFDLLLENVGELLDDRSWLQGQISVVRQLISGPLDVSSIEQARGTLREVIYKQGLLKQGIAESKTAMREMMVSFVDRLDGMATSTGEYHDRVAGYSQAIGEARGIPDLNRLLQDLLQDTAGVQAQALAARDELLSARRQVEDCEQRIASLEQELKDVAGLVREDQLTGALNRRGFEELFQREAVRTQRSGQPLCVAMLDLDDFRRLNETHGHAGGDAALRHTVDVAKAVLRTTDAIARFGGEEFVLLLPDSTIFEASAAVIRLQRALSQRSLLHDDVRVFISFSAGVALRGTDETQDDVIRRADRAMYDAKSAGKNRVINAD | failed
14 | MADSESKIYHERQRLQFCLLHCLNNLFQDKDAFTKESLNSIAEKLETNDPNKETWTPLSFVLKPHHNTITGNYDVNVMITALEGKGKSVVWHDKRIGASSIDLDDADTLMGIVLNVPVKRYGGLWRSRHWVVVRKINGVWYNLDSDLVVPQLFRDDDEVRGFLDQNLSLDVIGLIWNLPYNANQLPLASNYRVVITHWSDLNGMFSHVTNYPLDFDVYPQVSSKVSAIYKATGTKRFNANTRPVTPGKQSSVKGPYYKNPGCTTSCGLRLPRKTECTAARLIKDLSCKFVMGLRLVVMRKKKKKRSPPLKKASSSGISQPSVISVVNDNNHRSAAIEDCIQFINSSSSFTRSNSTCGSKS | failed
15 | MAEAHVTKVGIVGIGFIGSDHLHRLTKTVANVDVTAVCDIVPGKAQKALDQQGLTATTYEDYHDLVNDPNVEVVVCTANNEAHYEIVMAALKAGKFTFCEKPLALDAKQCMDIIDSEKKLGRRMLQVGFMRHYAPEYVQMKKMIDDGVIGKPLMMDQRHYNQTQPEEYDSSRSIIETAIHEIDIDHWLVNDDYANIRVFSPKQTRHVQNAKIQDPQIVMIETKSGINIINEVFVRCQYGYDIKCDVIGEEGVLELPTVPQVATRLNAQYSTAILTDWKARFESAYDIEFRDFINHVSQNESPVGPSAWDGYIAAVTADAALKSLAEDGAKQDLDFPSTPAFYTESEKVSE | failed
16 | MAEANTPHIAIMPSPGMGHLIPFVELAKRLVQHDCFTVTMIISGETSPSKAQRSVLNSLPSSIASVFLPPADLSDVPSTARIETRAMLTMTRSNPALRELFGSLSTKKSLPAVLVVDMFGADAFDVAVDFHVSPYIFYASNANVLSFFLHLPKLDKTVSCEFRYLTEPLKIPGCVPITGKDFLDTVQDRNDDAYKLLLHNTKRYKEAKGILVNSFVDLESNAIKALQEPAPDKPTVYPIGPLVNTSSSNVNLEDKFGCLSWLDNQPFGSVLYISFGSGGTLTCEQFNELAIGLAESGKRFIWVIRSPSEIVSSSYFNPHSETDPFSFLPIGFLDRTKEKGLVVPSWAPQVQILAHPSTCGFLTHCGWNSTLESIVNGVPLIAWPLFAEQKMNTLLLVEDVGAALRIHAGEDGIVRREEVVRVVKALMEGEEGKAIGNKVKELKEGVVRVLGDDGLSSKSFGEVLLKWKTHQRDINQETSH | failed
